Experimental data reported in the supplement of paper PMC11246515.
± gives the standard deviation of the averaged measurements.

Experiment: total protein half-life in vivo (active degradation + dilution); higher = more stable protein
[1] = E. coli NCM3722 delta-clpP delta-lon delta-hslV, growth: N-lim chemostat, doubling time 6 h
[2] = E. coli NCM3722 delta-clpP, growth: N-lim chemostat, doubling time 6 h
[3] = E. coli NCM3722 delta-hslV, growth: N-lim chemostat, doubling time 6 h
[4] = E. coli NCM3722 delta-lon, growth: N-lim chemostat, doubling time 6 h
[5] = E. coli NCM3722 delta-smpB, growth: N-lim chemostat, doubling time 6 h
[6] = wild type E. coli NCM3722, growth: C-lim chemostat, doubling time 3 h
[7] = wild type E. coli NCM3722, growth: C-lim chemostat, doubling time 6 h
[8] = wild type E. coli NCM3722, growth: C-lim chemostat, doubling time 12 h
[9] = wild type E. coli NCM3722, growth: N-lim chemostat, doubling time 6 h
[10] = wild type E. coli NCM3722, growth: N-lim chemostat, doubling time 12 h
[11] = wild type E. coli NCM3722, growth: P-lim chemostat, doubling time 6 h
[12] = wild type E. coli NCM3722, growth: P-lim chemostat, doubling time 12 h

## MTITKLAWRDLVPDTDSYQEIFAQPHLIDENDPLFSDTQPRLQFALEQLLHTRASSSFMLAKAPEESEYLNLIANAARTLQSDAGQLVGGHYEVSGHSIRLRHAVSADDNFATLTQVVAADWVEAEQLFGCLRQFNGDITLQPGLVHQANGGILIISLRTLLAQPLLWMRLKNIVNRERFDWVAFDESRPLPVSVPSMPLKLKVILVGERESLADFQEMEPELSEQAIYSEFEDTLQIVDAESVTQWCRWVTFTARHNHLPAPGADAWPILIREAARYTGEQETLPLSPQWILRQCKEVASLCDGDTFSGEQLNLMLQQREWREGFLAERMQDEILQEQILIETEGERIGQINALSVIEFPGHPRAFGEPSRISCVVHIGDGEFTDIERKAELGGNIHAKGMMIMQAFLMSELQLEQQIPFSASLTFEQSYSEVDGDSASMAELCALISALADVPVNQSIAITGSVDQFGRAQPVGGLNEKIEGFFAICQQRELTGKQGVIIPTANVRHLSLHSELVKAVEEGKFTIWAVDDVTDALPLLLNLVWDGEGQTTLMQTIQERIAQASQQEGRHRFPWPLRWLNWFIPN
[1]
  total protein half-life in vivo: 6.81 ± 0.57 h
[2]
  total protein half-life in vivo: 6.24 ± 0.11 h
[3]
  total protein half-life in vivo: 7.24 ± 1.1 h
[4]
  total protein half-life in vivo: 6 ± 0.53 h
[5]
  total protein half-life in vivo: 6.58 ± 0.43 h
[6]
  total protein half-life in vivo: 3.017 ± 0.024 h
[7]
  total protein half-life in vivo: 5.99 ± 0.54 h
[8]
  total protein half-life in vivo: 9.75 ± 2.2 h
[9]
  total protein half-life in vivo: 6.17 ± 0.21 h
[10]
  total protein half-life in vivo: 13.7 ± 1.1 h
[11]
  total protein half-life in vivo: 6.4 ± 0.075 h
[12]
  total protein half-life in vivo: 12.6 ± 1.4 h

## MTVNSSRNALKRRTWALFMFFFLPGLLMASWATRTPAIRDILSVSIAEMGGVLFGLSIGSMSGILCSAWLVKRFGTRNVILVTMSCALIGMMILSLALWLTSPLLFAVGLGVFGASFGSAEVAINVEGAAVEREMNKTVLPMMHGFYSLGTLAGAGVGMALTAFGVPATVHILLAALVGIAPIYIAIQAIPDGTGKNAADGTQHGEKGVPFYRDIQLLLIGVVVLAMAFAEGSANDWLPLLMVDGHGFSPTSGSLIYAGFTLGMTVGRFTGGWFIDRYSRVAVVRASALMGALGIGLIIFVDSAWVAGVSVVLWGLGASLGFPLTISAASDTGPDAPTRVSVVATTGYLAFLVGPPLLGYLGEHYGLRSAMLVVLALVILAAIVAKAVAKPDTKTQTAMENS
[2]
  total protein half-life in vivo: 4.21 h
[12]
  total protein half-life in vivo: 7.65 h

## MRRANDPQRREKIIQATLEAVKLYGIHAVTHRKIATLAGVPLGSMTYYFSGIDELLLEAFSSFTEIMSRQYQAFFSDVSDAPGACQAITDMIYSSQVATPDNMELMYQLYALASRKPLLKTVMQNWMQRSQQTLEQWFEPGTARALDAFIEGMTLHFVTDRKPLSREEILRMVERVAG
[1]
  total protein half-life in vivo: 5.17 ± 0.91 h
[2]
  total protein half-life in vivo: 4.84 h
[3]
  total protein half-life in vivo: 4.98 ± 0.17 h
[5]
  total protein half-life in vivo: 4.87 ± 0.94 h
[6]
  total protein half-life in vivo: 2.46 ± 0.18 h
[7]
  total protein half-life in vivo: 4.6 h
[8]
  total protein half-life in vivo: 5.18 h
[9]
  total protein half-life in vivo: 5.11 h
[10]
  total protein half-life in vivo: 8.57 h
[11]
  total protein half-life in vivo: 4.06 h
[12]
  total protein half-life in vivo: 6.17 ± 0.89 h

## MKISLVVPVFNEEEAIPIFYKTVREFEELKSYEVEIVFINDGSKDATESIINALAVSDPLVVPLSFTRNFGKEPALFAGLDHATGDAIIPIDVDLQDPIEVIPHLIEKWQAGADMVLAKRSDRSTDGRLKRKTAEWFYKLHNKISNPKIEENVGDFRLMSRDVVENIKLMPERNLFMKGILSWVGGKTDIVEYVRAERIAGDTKFNGWKLWNLALEGITSFSTFPLRIWTYIGLVVASVAFIYGAWMILDTIIFGNAVRGYPSLLVSILFLGGIQMIGIGVLGEYIGRTYIETKKRPKYIIKRVKK
[1]
  total protein half-life in vivo: 6.26 ± 0.44 h
[2]
  total protein half-life in vivo: 6.88 ± 1.2 h
[3]
  total protein half-life in vivo: 7.42 ± 0.82 h
[5]
  total protein half-life in vivo: 6.23 ± 0.34 h
[6]
  total protein half-life in vivo: 3.54 ± 0.22 h
[7]
  total protein half-life in vivo: 6.05 ± 0.38 h
[9]
  total protein half-life in vivo: 6.19 ± 0.16 h
[11]
  total protein half-life in vivo: 6.08 ± 0.13 h
[12]
  total protein half-life in vivo: 13.7 ± 0.2 h

## MTTLTAQQIACVYAWLAQLFSRELDDEQLTQIASAQMAEWFSLLKSEPPLTAAVNELENRIATLTVRDDARLELAADFCGLFLMTDKQAALPYASAYKQDEQEIKRLLVEAGMETSGNFNEPADHLAIYLELLSHLHFSLGEGTVPARRIDSLRQKTLTALWQWLPEFVARCRQYDSFGFYAALSQLLLVLVECDHQNR
[1]
  total protein half-life in vivo: 5.85 h
[7]
  total protein half-life in vivo: 4.24 h
[12]
  total protein half-life in vivo: 9.47 ± 1.7 h

## MKRAVVVFSGGQDSTTCLVQALQQYDEVHCVTFDYGQRHRAEIDVARELALKLGARAHKVLDVTLLNELAVSSLTRDSIPVPDYEPEADGIPNTFVPGRNILFLTLAAIYAYQVKAEAVITGVCETDFSGYPDCRDEFVKALNHAVSLGMAKDIRFETPLMWIDKAETWALADYYGKLDLVRNETLTCYNGFKGDGCGHCAACNLRANGLNHYLADKPTVMAAMKQKTGLR
[1]
  total protein half-life in vivo: 4.91 ± 0.072 h
[2]
  total protein half-life in vivo: 4.53 ± 0.16 h
[3]
  total protein half-life in vivo: 4.47 ± 0.14 h
[4]
  total protein half-life in vivo: 5.02 ± 0.59 h
[5]
  total protein half-life in vivo: 3.87 ± 0.57 h
[6]
  total protein half-life in vivo: 2.6 ± 0.17 h
[7]
  total protein half-life in vivo: 5.36 ± 0.46 h
[8]
  total protein half-life in vivo: 9.333 ± 0.044 h
[9]
  total protein half-life in vivo: 4.84 ± 0.59 h
[10]
  total protein half-life in vivo: 7.72 ± 0.73 h
[12]
  total protein half-life in vivo: 12.4 ± 1.3 h

## MSLPFLRTLQGDRFFQLLILVGIGLSFFVPFAPKSWPAAIDWHTIITLSGLMLLTKGVELSGYFDVLGRKMVRRFATERRLAMFMVLAAALLSTFLTNDVALFIVVPLTITLKRLCEIPVNRLIIFEALAVNAGSLLTPIGNPQNILIWGRSGLSFAGFIAQMAPLAGAMMLTLLLLCWCCFPGKAMQYHTGVQTPEWKPRLVWSCLGLYIVFLTALEFKQELWGLVIVAAGFALLARRVVLSVDWTLLLVFMAMFIDVHLLTQLPALQGVLGNVSHLSEPGLWLTAIGLSQVISNVPSTILLLNYVPPSLLLVWAVNVGGFGLLPGSLANLIALRMANDRRIWWRFHLYSIPMLLWAALVGYVLLVILPAN
[10]
  total protein half-life in vivo: 9.39 h

## MTFWSILRQRCWGLVLVVAGVCVITFIISHLIPGDPARLLAGDRASDAIVENIRQQLGLDQPLYVQFYRYVSDLFHGDLGTSIRTGRPVLEELRIFFPATLELAFGALLLALLIGIPLGILSAVWRNRWLDHLVRIMAITGISTPAFWLGLGVIVLFYGHLQILPGGGRLDDWLDPPTHVTGFYLLDALLEGNGEVFFNALQHLILPALTLAFVHLGIVARQIRSAMLEQLSEDYIRTARASGLPGWYIVLCYALPNALIPSITVLGLALGDLLYGAVLTETVFAWPGMGAWVVTSIQALDFPAVMGFAVVVSFAYVLVNLVVDLLYLWIDPRIGRGGGE
[1]
  total protein half-life in vivo: > 8 h
[3]
  total protein half-life in vivo: 5.53 h
[9]
  total protein half-life in vivo: 5.15 h
[10]
  total protein half-life in vivo: 7.28 h

## MSTDNKQSLPAITLAAIGVVYGDIGTSPLYTLRECLSGQFGFGVERDAVFGFLSLIFWLLIFVVSIKYLTFVMRADNAGEGGILTLMSLAGRNTSARTTSMLVIMGLIGGSFFYGEVVITPAISVMSAIEGLEIVAPQLDTWIVPLSIIVLTLLFMIQKHGTAMVGKLFAPIMLTWFLILAGLGLRSIIANPEVLHALNPMWAVHFFLEYKTVSFIALGAVVLSITGVEALYADMGHFGKFPIRLAWFTVVLPSLTLNYFGQGALLLKNPEAIKNPFFLLAPDWALIPLLIIAALATVIASQAVISGVFSLTRQAVRLGYLSPMRIIHTSEMESGQIYIPFVNWMLYVAVVIVIVSFEHSSNLAAAYGIAVTGTMVLTSILSTTVARQNWHWNKYFVALILIAFLCVDIPLFTANLDKLLSGGWLPLSLGTVMFIVMTTWKSERFRLLRRMHEHGNSLEAMIASLEKSPPVRVPGTAVYMSRAINVIPFALMHNLKHNKVLHERVILLTLRTEDAPYVHNVRRVQIEQLSPTFWRVVASYGWRETPNVEEVFHRCGLEGLSCRMMETSFFMSHESLILGKRPWYLRLRGKLYLLLQRNALRAPDQFEIPPNRVIELGTQVEI
[1]
  total protein half-life in vivo: 7.06 ± 1.1 h
[3]
  total protein half-life in vivo: 6.21 h
[4]
  total protein half-life in vivo: 6.28 ± 0.53 h
[5]
  total protein half-life in vivo: 5.9 ± 0.4 h
[7]
  total protein half-life in vivo: 6.79 ± 0.6 h
[8]
  total protein half-life in vivo: 14.2 ± 1.2 h
[9]
  total protein half-life in vivo: 6.28 ± 1 h
[10]
  total protein half-life in vivo: 12.17 ± 0.096 h
[11]
  total protein half-life in vivo: 6.43 ± 0.26 h
[12]
  total protein half-life in vivo: 12.6 ± 0.69 h
